Laboratory results from patent US20210380703A1.
Numbering of substitutions follows the chain as printed.

B1: 374_G10 (antibody, V domains shown)
VH: EVQLLESGGGLVQPGGSLRLSCAASGFTFSSYSMNWVRQAPGKGLEWVSSINYNSGYTSYADSVKGRFTISRDNSKNTLYLQMNSLRAEDTAVYYCARGANWHDTHLDYWGQGTLVTVSS
VL: DIQMTQSPSSLSASVGDRVTITCRASQSIVSYLNWYQQKPGKAPKLVIYAVTSRASGVPSRFSGSGSGTDFTLTISSLQPEDFATYYCQQSYDSPLTFGGGTKVEIK
B2: 365_B10 (antibody, V domains shown)
VH: B1 VH with S30D, S31D, N35H, S49A, T58K, S59G, G99A, H106A
VL: B1 VL with V30L, S31R, V47L, V51A, Y92D, D93N, S94L
B3: 369_B03 (antibody, V domains shown)
VH: B1 VH with S33G, N35H, S49A, S50G, S55G, G99A, H106A
VL: B1 VL with V30L, S31T, L33V, V51A, R54L, D93E, S94L
B4: 368_B10 (antibody, V domains shown)
VH: B1 VH with S30D, S33G, N35H, S49A, S55G, G99A, H106A
VL: B1 VL with V30L, S31T, V51A, Y92D, D93E, S94L
B5: 376_B03 (antibody, V domains shown)
VH: B1 VH with S49A, S50G, T58K, H106A
VL: B1 VL with V30L, L33V, A55H
B6: 375_B12 (antibody, V domains shown)
VH: B1 VH with S30D, S49A, S50G, S55G, T58K, H106A
VL: B1 VL with S31T, V47L, V51A, S94T
B7: 376_E02 (antibody, V domains shown)
VH: B1 VH with S49A, S50G, S55G, T58K, S59G, H106A
VL: B1 VL with V30L, L33V, V51A, A55H, Y92D, D93N, S94T
B8: 375_A08 (antibody, V domains shown)
VH: B1 VH with S49A, S50G, S55G, S59G, H106A
VL: B1 VL with S31T, V47L, V51A, D93E
B9: 375_D10 (antibody, V domains shown)
VH: B1 VH with S49A, S50G, S55G, H106A
VL: B1 VL with V30L, S31T, L33V, V47L, V51A, Y92D
B10: 374_H01 (antibody, V domains shown)
VH: B1 VH with S30D, S49A, S50G, S55G
VL: B1 VL with V30L, V51A, R54L, D93E, S94N
B11: 372_A09 (antibody, V domains shown)
VH: B1 VH with S30D, S33G, S50G, S55G, G99A, H106A
VL: B1 VL with V30L, V51A, D93N
B12: 372_B11 (antibody, V domains shown)
VH: B1 VH with N35H, S49A, S50G, G99A
VL: B1 VL with V30L, S31T, L33V, V51A, R54L, S94T
B13: 375_A12 (antibody, V domains shown)
VH: B1 VH with S50G, T58K, H106A
VL: B1 VL with V30L, D93E, S94T
B14: 371_A04 (antibody, V domains shown)
VH: B1 VH with S30D, S33G, S59G, G99A, H106A
VL: B1 VL with V30L, S31T, V47L, S94T
B15: 374_G11 (antibody, V domains shown)
VH: B1 VH with S31D, S50G, S55G, H106A
VL: B1 VL with V30I, L33V, V51A, R54L
B16: 376_E11 (antibody, V domains shown)
VH: B1 VH with S50G, S55G, H106A
VL: B1 VL with V30L, S31T, L33V, V51A, D93E, S94L
B17: 368_B11 (antibody, V domains shown)
VH: B1 VH with S30D, S33G, N35H, S50G, S55G, T58K, G99A
VL: B1 VL with V30L, V47L, V51A, T52S, R54L, A55Q
B18: 375_G05 (antibody, V domains shown)
VH: B1 VH with S49A, S50G, S55G, H106A
VL: B1 VL with V47L
B19: 372_E02 (antibody, V domains shown)
VH: B1 VH with S33G, S49A, S55G, G99A, H106A
VL: B1 VL with V30I, L33V, V51A, S94L
B20: 374_H11 (antibody, V domains shown)
VH: B1 VH with S50G, S55G, H106A
VL: B1 VL with V30I, L33V, V51A, R54L, A55H, D93S, S94N
B21: 369_G10 (antibody, V domains shown)
VH: B1 VH with S33G, N35H, S49A, S55G, G99A, H106A
VL: B1 VL with V30L, V51A
B22: 375_E06 (antibody, V domains shown)
VH: B1 VH with S50G, S55G, T58K, H106A
VL: B1 VL with V30L, V51A
B23: 370_B01 (antibody, V domains shown)
VH: B1 VH with S30D, S31D, S33G, N35H, S50G, S55G, T58K, G99A, H106A
VL: B1 VL with V30L, L33V, V47L, A50V, V51A, T52S, D93S, S94L
B24: 374_F03 (antibody, V domains shown)
VH: B1 VH with S33G, S49A, S55G, G99A
VL: B1 VL with V30I, L33V, V51A, S94T
B25: 371_A09 (antibody, V domains shown)
VH: B1 VH with S33G, S50G, S55G, T58K, G99A, H106A
VL: B1 VL with S31T, L33V, V51A
B26: 375_A07 (antibody, V domains shown)
VH: B1 VH with S30D, S59G
VL: B1 VL with V30L, S31T, V47L, V51A, S94T
B27: 375_G04 (antibody, V domains shown)
VH: B1 VH with S33G, S49A, S59G
VL: B1 VL with L33V, V47L, V51A, R54L
B28: 375_F07 (antibody, V domains shown)
VH: B1 VH with S31D, S50N, S55G, S59G, H106A
VL: B1 VL with V30L, V47L, V51A
B29: 368_F10 (antibody, V domains shown)
VH: B1 VH with S33G, S49A, S50G, G99A
VL: B1 VL with L33V, V47L, V51A, S94T
B30: 371_D12 (antibody, V domains shown)
VH: B1 VH with S30D, S33G, S50G, S55G, T58K, G99A, H106A
VL: B1 VL with V30L, V47L, V51A, D93E, S94L
B31: 371_H02 (antibody, V domains shown)
VH: B1 VH with S30D, S31D, S50G, S55G, T58K, G99A
VL: B1 VL with V30I, V51A, R54L, D93E, S94N
B32: 375_H05 (antibody, V domains shown)
VH: B1 VH with S50N, S55G, S59G, H106A
VL: B1 VL with V30L, L33V, V47L, V51A, S94T
B33: 368_C09 (antibody, V domains shown)
VH: B1 VH with N35H, S50N, S55G, S59G, G99A
VL: B1 VL with V30L, S31T, L33V, V47L, V51A, R54L, S94L
B34: 373_E11 (antibody, V domains shown)
VH: B1 VH with S30D, S33G, N35H, S49A, S55G, G99A, H106A
VL: B1 VL with V51A
B35: 365_B04 (antibody, V domains shown)
VH: B1 VH with S33G, N35H, S49A, G99A, H106A
VL: B1 VL with V30L, S31T, V47L, V51A, A55H, Y92D, D93E
B36: 371_D07 (antibody, V domains shown)
VH: B1 VH with S30D, S31D, S33G, S49A, S50N, S55G, T58K, S59G, G99A
VL: B1 VL with V30L, S31T, V51A, D93E, S94L
B37: 368_B08 (antibody, V domains shown)
VH: B1 VH with S30D, S33G, S55G, G99A
VL: B1 VL with V30L, S31T, L33V, V51A, D93E, S94N
B38: 375_E10 (antibody, V domains shown)
VH: B1 VH with S50G, S55G, H106A
VL: B1 VL with V30L, V51A, S94N
B39: 375_F08 (antibody, V domains shown)
VH: B1 VH with S33G, T58K
VL: B1 VL with V30L, V47L, V51A, A55H, S94N
B40: 370_H08 (antibody, V domains shown)
VH: B1 VH with S33G, N35H, S49A, S55G, G99A
VL: B1 VL with V30L, L33V, V47L, V51A, A55H, D93S, S94L
B41: 375_D01 (antibody, V domains shown)
VH: B1 VH with S50G, S55G, S59G, H106A
VL: B1 VL with V30L, S31T, V51A, D93E, S94T
B42: 375_F02 (antibody, V domains shown)
VH: B1 VH with S49A
VL: B1 VL with V30L, V47L, V51A
B43: 375_C04 (antibody, V domains shown)
VH: B1 VH with S31D, S49A, S50G, S55G, H106A
VL: B1 VL with V30L, S31T, V51A, D93E
B44: 368_D09 (antibody, V domains shown)
VH: B1 VH with S30D, S33G, N35H, S49A, S50G, T58K, G99A
VL: B1 VL with L33V, V47L, V51A, R54L, S94N
B45: 375_E03 (antibody, V domains shown)
VH: B1 VH with S31D, S49A, S50N, S55G, S59G
VL: B1 VL with V30L, S31T, V51A, R54L, S94N
B46: 376_C04 (antibody, V domains shown)
VH: B1 VH with S33G, S50N, S55G, S59G, H106A
VL: B1 VL with V30L, L33V, V47L, A55H, S94N
B47: 374_B02 (antibody, V domains shown)
VH: B1 VH with S30D, N35H, S49A, S50G, G99A
VL: B1 VL with V30I, V47L, V51A
B48: 369_H03 (antibody, V domains shown)
VH: B1 VH with N35H, S49A, T58K, G99A, H106A
VL: B1 VL with V47L, V51T, S94T

target: human Fc (human); assay: ELISA, negative control

Binder	optical density
B1	0.173 OD
B2	0.322 OD
B3	0.62 OD
B4	0.412 OD
B5	0.253 OD
B6	0.223 OD
B7	0.222 OD
B8	0.205 OD
B9	0.228 OD
B10	0.251 OD
B11	0.31 OD
B12	0.438 OD
B13	0.174 OD
B14	0.315 OD
B15	0.179 OD
B16	0.268 OD
B17	0.286 OD
B18	0.21 OD
B19	0.431 OD
B20	0.169 OD
B21	0.423 OD
B22	0.188 OD
B23	0.47 OD
B24	0.185 OD

Binder	optical density
B25	0.302 OD
B26	0.188 OD
B27	0.161 OD
B28	0.172 OD
B29	0.328 OD
B30	0.337 OD
B31	0.388 OD
B32	0.167 OD
B33	0.341 OD
B34	0.243 OD
B35	0.271 OD
B36	0.299 OD
B37	0.314 OD
B38	0.187 OD
B39	0.201 OD
B40	0.538 OD
B41	0.182 OD
B42	0.205 OD
B43	0.221 OD
B44	0.212 OD
B45	0.181 OD
B46	0.219 OD
B47	0.179 OD
B48	0.498 OD
